From a protein production outcome set (Wang et al. 2014) come the findings set out here.

The nature of this data set: label from the status in PepcDB records.
Consider “MRISCMSSFLTSDVLIAFSVTFLAGLATLLGGAIVLFFKQPSLRLLSFGLAFSAGAMVYISLTEILNKSIHSFSEVFSAKVGFAFATFAFLTGVIAILLLDRCVPNPHTMLEKTTAQQLDQTQLRRTGLLTMLAITAHNFPEGLATFFATLDSPILGAPLAVAIAIHNIPEGIAIAVPVYMATGQKSYAIWASLLSGLAEPLGAALGYFILAPYMGATMYGIIFGLIAGVMVYLAMDELLPAAKKYSQGHETVYGLVTGMAALATSLVLFQWV”, for which the protein production result is “failed”.

Consider “MRISKMLVTELNIYPLKSARGIALKESAVSAEGLPGDRRAMLTDPSGHFITQRELPAIATVLARHEDGGMALSRERSGEIFARPSGQRMDVAVWKSIVSANIADDETNDTLSAWLGREVKLVFFDDAAKRIASLEWTGNETPVTFADGYQILVTTTASLAALNDNMRGNGEDAVGMERFRPNIVLETEEAWAEDRWAAIEIGGIRFDLVKPCARCIMTTQDQMTGSRDVPSPMKAMGRIRMSGDRRVPGPLFGWNVTPRGEGRLSVGDVARVVEERPEGWAIKRRLEHHHHHH”, for which the protein production result is on record as “not failed”.

For “MRIVIAGGHGQIALRLERLLAARGDEVAGIVRKAEQADDLRAAGAEPVVLDLESASVEEVAERLRGADAAVFAAGAGPGSGVARKDTVDKAAAVLFADAAVRAGVRRFLIVSSMGADPGHQGDEIFDVYLRAKGEADAYVSSLDALDWTILRPGALTDDAGTGLVRLEAHTGRGPVPRDDVAAVLAELVDTPATNGLALELISGSAPVSVAVKSVAGN”, the protein production result is “failed”.

Take “MRKARGIKLIAVFLVAAVVNVVFGFCVLAKAQILKKPAENSYVFDYANLIDSSDEEEMRALAKEIEDKSKAEIVVVTVETLGSYTIEEYANELFRSWEIGDKELNNGVLILVNKENLLLGKKGRIRIEVGYGLEGAITDGKAGRTLDEYAIPAFERNEYSKGIRDTFLAVASEVANEYGLKIDGLSGYGASEDVNENEVTSDGNAENVVDVPFGLGIGAGLIVGFGLFFFIIFLMVIVILYNQPYAGKKYEWTWKNGKWEKKVYVYRYDDLWKNNRSFFDDSDDSDSFGSGGGFGGFGGGSSGGGGASR”: the protein production entry is “failed”.

For the sequence “MRKCLLSVAMIVKDEEHNIRRALESIKDVVDEIVVVDTGSTDRTPEIVREYTDKLYFHEWKNDFSEARNFSLKFPTCEWVLILDADEEASEEFRQNIRSFLESLPEDVNTVYLPTVSYLDWDFKRTEIASTPRIFRNGTVYYKNIVHNQAVYKPKVVHAPFVIYHYGYIWTRKLKKNKYERTATLIREQLKTVKNPIEKIYYLIQLYKTEKTGGRKHEENRIAWETLQEIMKVGKIPPIGLEFLYIFGMELILNGFLEKGEELIDTAIRVFPENPDPYFAKLAIYERRKDWENLYQWGKKFLDVLNKALSQAEKYEFTITTIKEIGTAHLLMCHACIKLKKWNEAYEHLLKAIENNIDESKFTLTLQIVSEIDESENFQKVLKLVEKIAEHSENLFFDEIVEKIAEFEIEASEELLNKLPVSRKISKFILKRLVEKKDFLFEYLTGGDINSFVEKTGIPGLLFIFDLLKNRETEGRLIRILSKIEGDEKPNGIVQALIGDLYLKLGNFSEAISRYRKALELAPEIGNFIKPVIEDLKTRLDPDIEGVYEELYRYFSGYREFPFNILEFTKEDAEKLYLISDHPLAIYTSAVAVFPKSKEKARALLERIKDVSKLSFYYYRLAKTWEEENPSKAFELHIKAVEENENLGDIALGRYKYDGLYPNQTFPFMKKEDEIVWAGNITEKFSGLGVIHPVRAWKRKENLYYALPHPTDEALKLYKEREKEILKEPPFKVKEEHMIGVLLESDIRDLRIKGEASGLESILKDLEIELKEDSKNLLVVSGVEETLDLSKIAEDAERVLLFFFVPDLRDRNNSVWYYPAFRVLRTTHQMKKTLEDLRFSVVKVKALDKNLRFIEALRRL”, the protein production entry is listed as “failed”.

Consider “MRKDDVVIVTCAITGAIHTPSMSPYLPVTPDQIVEEAVKAAEAGAGMVHIHARDPKDGRPTTDVEVFRYICREIKKQSDVVINVTTGGGGTLGIPVEERAKVVPALKPEIATFNMGSMNFAIHPLLKKYKEFKYDWEPEYLEMTRDIVFRNTFKDLEALSRIFKENDTKPELECYDIGQIYNTAFMFHEGYLEPPLRLQFIHGILGGIGTAVEDVLFMKQTADRLIGRENYTWSLVGAGRFQMPLGTLAVIMGGDVRVGLEDSLYIERGKLAKSNAEQVEKMVRIVKELGKRPATPDEVREILGLKGKERVNF”, for which the protein production entry is on record as “not failed”.

With “MRKDTEEVQKSSGKTRKSYVKVKKKRRKSTKQKGPEPKKLDFVKDSWQKGSLEIKKLDFIGDRWQTVSLEPKMLGFVEDPWRKGSLEPKMLDFVEDPWQKGSLEPKMLDIVEDSWQKDSFEAMKLDFAEYNWISIDNRRVSADSKRSSVDSKRSSVDSKRSSVDSKRGSIDSRKFSVDSKRDPVDNKRDSVDSKRFSVDSKRFSVDSRRVSISSKRSSIDSKRSSVDSRKSSGGTLLDFSEDRRSSGEDRDISSLARVRHSRVPWATLMRALGRFKLYLPHIRRYYNLSSRDPLALDKDFLLPREKHLKATVQKSWGNQQPLSKIPYKTLTGHDQTVSSCHFCMDDTRLLSSSYDCTVKLWDAEDGTVICDFEPRPKAPVLECSITADNRRIVASSYDKTVRAWDVETGQLLWKVRHDTFVVCCKFSPNGKYVLSALDVNRGIYLMDPENITSVIHMKAQHQRSITSCCFDPDSQKVASVSMDKSIKIWDVTSRATLFTIQEAHTNAISDCCFTFSGHFLCTSSWDRTIKIWNVHTGEFRNQGACVTLMKGHEGCVSSCCIARDSSFLISGGFDKTVAIWDVGGGYRKLSLKGHEDWVTDVAISNDKKWILSASKDNSMRLWNIEEIDKIPLVSENKRAMGLKVRQCRNCDQLFSVLESDVYSQLSNTCLFCRREKKSLSSSSSSLSLSSLERLCI”, the protein production result is on record as “failed”.

Consider “MRKFTILLLLLWLPSFVSSLTEFDSVMDLRKQLIVLTGWLGFAYMGAAIVLSARFKWTERLVKGLDKAYGLHKKLGISAFIALLLHWLVIKAAHWAVQLGWLVRPTHAGKERVITGVDWISLAEKVGDISFKVFILFTIISLVERISYKKFKGIHKIGGALMLAGVFHTLFLIKWDLSLIPMNIAIILISAISVWCAILSLTGSIGKKNKIGGQVVLVDKFKDDSEFTVVARLQIKLESKLRYKEGQFAYINFHDGEAPHPFSILNYNEKTRLVEFGIKDLGDYTHQLVNQIAVGKKATVEGGYGYFQVPSDMNQVWVGAGIGIVPLLSRLYWLQKSTDKTTKRIEKIHLFYCVNNEKEAFFSTEIKAILRKMDFIELHLIESDKGYRLTSEYILNKIDNESFSVSFCGPEGFGMSLKQGLMANGLPEASFHKEIFKMR”, for which the protein production entry is “failed”.

Take “MRKHSDCMNFCAVDATKGICRLSKQMINLDDAACPEIKVMPKCKNCKNFVEANDEGIGKCVGLEKEDWVYSTLNAITCEGHVFNE”: the protein production result was “failed”.

Take “MRKILVVGAGQSGLQLALGLQSHGYEVTLMSNRTADEIRSGRVMSTQCMFDTALGHERDLQLNFWESQAPKIEGLGVSVAAPGSFDPGPSQRAIDWVGKLDGYAQSVDQRVKMAGWMETFAQRGGQLVIHGAAVSDLDYFSRAYDLVLVSAGKGELVSMFGRDASRSPYSEPQRALAVAYVHGLGPRPEHPDYDAVRCNLVPGVGELFVMPTLTTSGRADILFWEGIPGGPLDVFKGVNDPGEHLSLTLELMERFTPWEYARATKVELTDGNGTLAGRYAPTVRNPVGRLPGGGLVLGVADVVVANDPITGQGSNSASKCAAAYLASIVEHGEKEFDETWMRATFDRYWDTAQHVTKWTNAMLGVPPEHVLNLIGAAGALQPVANRFANGFDNPADFENFFYEPEKTEAYLASVAGS”: the protein production entry was “failed”.

Regarding “MRKKKDGQNLPDFRKNPPKLDKKAYEKELKRLQAELVDLQQWVVETGARVVIVMEGRDAAGKGSAIKRITQYLNPRSARIEALPTPNSREKGQWYFQRYIEKLPTAGEIVIFDRSWYNRAGVERVMGFCTSQEYRRFLHQAPIFERLLVEDGIHLRKYWFSVSDEEQIERFEDRLSDPLRRWKLSPMDLQSITRWEDYSRAKDEMFIHTDIPSAPWYTVESEDKKRSRINVISHLLSTIPYEKIDRPLPEIPHRPDSESDYVRPPRDEFRYVPDVAAHLEEERIKKEEKAKKAKKPAKAAGKNSDKQKSSGGKGKKKSKK”, the protein production result is listed as “failed”.
